According to patent US20250084127:
Where a chain is given by its changes, count along the chain named. In names and notes the source's numbering stands.

Columns and labels:
[1] = target: seco-wollamide B1-EG
[2] = target: T1, crude peptide 1 (EG-surugamide B precursor) (not fully specified)
T1 chain: IAIVKIFL

[3] = target: peptide having a polyethylene glycol (PEG) chain therein (EG at the C terminal)
[4] = target: seco-desprenylagaramide C-EG
[5] = target: tyrocidine A precursor having EG as a leaving group

B1: recombinant WolJ (protein)
chain: MNHKVHHHHHHMSAEAKGRGTTISLPLDRLAKEHSVVGGQLAVHHQGTTHTWAFGEEEHDSGRPVSVGTAFALGSTTKALTATSVLQLVSDGDLDLDSPVKTWIEERGAAADHPALNATLRQLLSHTAGLPSDHFDEEAPSLRRWLAGFLTSGDERARASWPTPGSFSYSNIGYAVAGRAVEAATGLPWWQAVRDYLLTPLGTGIGLLPGAPQDGRPLTAAPGHTAHTTPDGRTVVHVVQSTTDAGSAPSGGLAGSAADLVRFARLHLEEPGDLDRSAVADPSVLREMAQPVTGAEPFGLADGWGLGLGHFGPAGRHWLGHDGTLDGSTCHLRIEPRQGTVVALTTNTSSGLALWDSVVEELRECGLDIGLHAPQPPLAAPAATFAECTGTYRNGDLAVTVGIEDQHIVLGLPNGQRDSVAPHTGLFFSGRPGNASLFLGRFVKDVATGEIRALQYSGRTLTREALTARN
B1 was tested, and the “peptide cyclization (LC-MS of the reaction mixture)” value [1] was “the substrate disappeared by an enzymatic reaction to generate a cyclized product (wollamide B1)”.

B2: recombinant SurE (protein)
chain: MGSSHHHHHHSSGLVPRGSHMGAEGAERDAVGALFEELVREHRVTGAQLSVYRDGALSEYATGLASVRTGEPVTPRTGFPFGSVTKFLTAELVMQFVCDGDLDLDDPLAGLLPDLGRAAGPPLGTATVRQLLSHTAGVVDSIEYDEMRGPSYRRFAAACARQPALFPPGLAFSYSNTGYCLLGAVIEAASGMDWWTAMDSCLLRPLGIEPAFLHDPRPGQGGAARPVAEGHALRAGGERAEHVDHMASLSLAAAGGLVGSATDLVTAARPHLADRKTFAQHDLLPEDAVLAMRTCVPDAEPFGLADGWGLGLMRHGTGDGAWYGHDGAVGGASCNLRIHPDRSLALALTANSTAGPKLWEALVARLPEAGLDVGHYALPVPDSAPLAPDAGHLGTYANGDLELMVTHDAAGDLFLTRESYSDYRLSLHEDDLFVARSGEPGALPITGRFVREHPAGPVALLQYGGRAMHRL
For B2, the “peptide cyclization (LC-MS of the reaction mixture)” value [2] was “a substrate (crude peptide 1, EG-SB precursor, m/z 960.5 [+H]) disappeared by the action of SurE to generate a cyclic peptide (surugamide B (SB), m/z 898.5 [+H])” and the “peptide cyclization (reverse-phase HPLC / LC-MS)” value [3] was “SurE efficiently circularized also a peptide having a PEG chain therein”.

B3: SurE (G235L) (protein)
chain: B2 chain with G255L
B3 was tested, and the “peptide cyclization (LC-MS of the reaction mixture)” value [4] was “the substrate disappeared by an enzymatic reaction to generate a cyclized product (desprenylagaramide C)”.

B4: recombinant TycC-TE (protein)
chain: MGSSHHHHHHSSGLVPRGSHMGGSHKRFESRYGTAILLNQETARNVFCFTPIGAQSVYYQKLAAEIQGVSLYSFDFIQDDNRMEQYIAAITAIDPSGPYTLMGYSSGGNLAFEVAKELEERGYGVTDIILFDSYWKDKAIERTVAETENDIAQLFAEIGENTEMFNMTQEDFQLYAANEFVKQSFVRKTVSYVMFHNNLVNTGMTTAAIHLIQSELEADEEAPVAAKWNESAWANATQRLLTYSGHGIHSRMLAGDYASQNASILQNILQELFILKGSRSHHHHHH
For B4, the “peptide cyclization (LC-MS of the reaction product)” value [5] was “In an active TycC-TE containing system, it was confirmed that a cyclic peptide, i.e., tyrocidine A, and a small amount of substrate hydrolysate were generated”.
